Values of other authors, collected in PMC12759081.

Target: PDS5B (Homo sapiens) (UniProt Q9NTI5)
Test: ITC

Chain of PDS5B (Homo sapiens) (Q9NTI5 whole entry): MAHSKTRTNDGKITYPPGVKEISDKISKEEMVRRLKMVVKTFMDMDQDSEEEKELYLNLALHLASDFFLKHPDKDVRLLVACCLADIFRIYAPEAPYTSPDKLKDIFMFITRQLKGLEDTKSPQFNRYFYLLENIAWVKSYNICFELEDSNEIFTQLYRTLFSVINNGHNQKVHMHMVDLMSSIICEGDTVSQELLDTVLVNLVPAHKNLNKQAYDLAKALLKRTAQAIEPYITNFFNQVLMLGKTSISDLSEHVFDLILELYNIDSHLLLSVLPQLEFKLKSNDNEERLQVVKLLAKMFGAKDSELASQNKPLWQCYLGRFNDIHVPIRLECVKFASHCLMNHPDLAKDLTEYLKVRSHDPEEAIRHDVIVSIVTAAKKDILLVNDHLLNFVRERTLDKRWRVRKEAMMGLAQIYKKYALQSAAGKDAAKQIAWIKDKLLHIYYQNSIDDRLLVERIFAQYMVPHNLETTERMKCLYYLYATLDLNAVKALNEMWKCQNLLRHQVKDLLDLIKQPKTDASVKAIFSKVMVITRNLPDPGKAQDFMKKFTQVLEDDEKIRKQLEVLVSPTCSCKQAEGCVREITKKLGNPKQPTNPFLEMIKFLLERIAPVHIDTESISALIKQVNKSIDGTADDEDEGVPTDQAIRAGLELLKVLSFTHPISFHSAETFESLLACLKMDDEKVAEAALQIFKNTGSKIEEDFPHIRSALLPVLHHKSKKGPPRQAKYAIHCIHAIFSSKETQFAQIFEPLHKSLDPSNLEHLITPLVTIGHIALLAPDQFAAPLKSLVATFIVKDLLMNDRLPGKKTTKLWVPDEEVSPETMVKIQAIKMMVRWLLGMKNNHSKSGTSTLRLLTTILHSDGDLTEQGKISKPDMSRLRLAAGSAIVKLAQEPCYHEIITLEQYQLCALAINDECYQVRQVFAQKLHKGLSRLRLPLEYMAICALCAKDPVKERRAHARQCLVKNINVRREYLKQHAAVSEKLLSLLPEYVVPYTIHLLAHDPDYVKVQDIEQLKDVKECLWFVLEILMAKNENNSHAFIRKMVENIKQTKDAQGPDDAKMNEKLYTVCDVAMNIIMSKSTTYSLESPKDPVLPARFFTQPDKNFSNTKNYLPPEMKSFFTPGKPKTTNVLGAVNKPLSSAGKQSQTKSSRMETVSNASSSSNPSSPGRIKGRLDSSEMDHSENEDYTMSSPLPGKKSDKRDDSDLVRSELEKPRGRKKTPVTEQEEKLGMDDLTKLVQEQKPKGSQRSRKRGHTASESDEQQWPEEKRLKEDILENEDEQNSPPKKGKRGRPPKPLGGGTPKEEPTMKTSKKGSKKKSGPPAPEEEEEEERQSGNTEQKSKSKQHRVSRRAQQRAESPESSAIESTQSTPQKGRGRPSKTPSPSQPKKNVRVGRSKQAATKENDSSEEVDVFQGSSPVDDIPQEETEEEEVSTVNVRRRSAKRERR
Chain of Wapl (Q7Z5K2 whole entry): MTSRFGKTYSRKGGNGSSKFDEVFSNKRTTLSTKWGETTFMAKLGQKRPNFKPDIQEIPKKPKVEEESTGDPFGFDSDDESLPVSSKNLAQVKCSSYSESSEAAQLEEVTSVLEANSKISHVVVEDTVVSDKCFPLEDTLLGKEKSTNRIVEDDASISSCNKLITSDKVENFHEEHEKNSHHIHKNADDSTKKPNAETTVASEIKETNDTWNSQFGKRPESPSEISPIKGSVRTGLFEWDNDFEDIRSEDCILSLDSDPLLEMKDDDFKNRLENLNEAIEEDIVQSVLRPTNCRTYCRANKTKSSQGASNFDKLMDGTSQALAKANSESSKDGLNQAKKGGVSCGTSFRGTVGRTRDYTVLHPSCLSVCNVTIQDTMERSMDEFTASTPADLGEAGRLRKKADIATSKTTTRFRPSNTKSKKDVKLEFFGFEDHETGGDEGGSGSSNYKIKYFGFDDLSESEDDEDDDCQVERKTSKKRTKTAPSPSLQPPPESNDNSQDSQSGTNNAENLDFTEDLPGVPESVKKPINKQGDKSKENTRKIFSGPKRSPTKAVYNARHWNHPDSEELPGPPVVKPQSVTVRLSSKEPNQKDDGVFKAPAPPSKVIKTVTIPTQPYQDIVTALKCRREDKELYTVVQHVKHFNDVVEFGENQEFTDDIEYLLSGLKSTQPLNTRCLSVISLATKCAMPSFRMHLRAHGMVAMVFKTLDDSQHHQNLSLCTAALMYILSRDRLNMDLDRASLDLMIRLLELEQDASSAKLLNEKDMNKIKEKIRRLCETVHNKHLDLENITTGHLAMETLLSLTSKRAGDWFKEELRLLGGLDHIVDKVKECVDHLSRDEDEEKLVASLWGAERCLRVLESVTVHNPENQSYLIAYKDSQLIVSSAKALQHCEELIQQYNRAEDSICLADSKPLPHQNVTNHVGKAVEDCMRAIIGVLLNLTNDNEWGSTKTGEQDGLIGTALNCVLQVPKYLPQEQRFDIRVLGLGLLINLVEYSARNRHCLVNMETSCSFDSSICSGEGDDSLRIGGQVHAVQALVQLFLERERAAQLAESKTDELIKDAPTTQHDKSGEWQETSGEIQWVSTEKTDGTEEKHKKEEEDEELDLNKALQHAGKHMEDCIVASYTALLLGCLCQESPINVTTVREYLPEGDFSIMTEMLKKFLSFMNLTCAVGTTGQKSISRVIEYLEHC

In the case of Wapl (from UniProt Q7Z5K2), the Kd is given as 6 µM.
